Reference: patent US20250281611A1 (BIOSCEPTRE AUST, published 2025)

B1: CD33 BRIDGE variant B13 (Fab, V domains shown)
VH: QVQLVQSGAEVKKPGSSVKVSCKASGYTFTDYNMHWVRQAPGQGLEWIGYIYPYNGGTGYNQKFKSKATITADESTNTAYMELSSLRSEDTAVYYCARGRPAMDYWGQGTLVTVSS
VL: DIQMTQSPSSLSASVGDRVTITCRASESVDNYGISFMNWFQQKPGKAPKLLIYAASNQGSGVPSRFSGSGSGTDFTLTISSLQPDDFATYYCQQSKEVPWTFGQGTKVEIKR
notes: Lintuzumab-based Fab bridging molecule
B2: CD33 BRIDGE variant B19 (Fab, V domains shown)
VH: B1 VH
VL: B1 VL
notes: as for B1
B3: CD33 BRIDGE variant B14 (Fab, V domains shown)
VH: B1 VH
VL: B1 VL
notes: as for B1
B4: CD33 BRIDGE variant B20 (Fab, V domains shown)
VH: B1 VH
VL: B1 VL
notes: as for B1
B5: CD33 BRIDGE variant B25 (Fab, V domains shown)
VH: B1 VH
VL: B1 VL
notes: as for B1
B6: CD33 BRIDGE variant B12 (Fab)
light: GHNYTTRNILPGLNITSTFHKTSGSGKGGGGSEPKSSDKTHTGSDIQMTQSPSSLSASVGDRVTITCRASESVDNYGISFMNWFQQKPGKAPKLLIYAASNQGSGVPSRFSGSGSGTDFTLTISSLQPDDFATYYCQQSKEVPWTFGQGTKVEIKRTVAAPSVFIFPPSDEQLKSGTASVVCLLNNFYPREAKVQWKVDNALQSGNSQESVTEQDSKDSTYSLSSTLTLSKADYEKHKVYACEVTHQGLSSPVTKSFNRGECHHHHHH
heavy: QVQLVQSGAEVKKPGSSVKVSCKASGYTFTDYNMHWVRQAPGQGLEWIGYIYPYNGGTGYNQKFKSKATITADESTNTAYMELSSLRSEDTAVYYCARGRPAMDYWGQGTLVTVSSASTKGPSVFPLAPSSKSTSGGTAALGCLVKDYFPEPVTVSWNSGALTSGVHTFPAVLQSSGLYSLSSVVTVPSSSLGTQTYICNVNHKPSNTKVDKKVEPKSCHHHHHH
notes: as for B1
B7: CD33 BRIDGE variant B17 (Fab)
light: GHNYTTRNILPGLNITSTFHKTSGSGKGSEPKSSDKTHTGGGGSDIQMTQSPSSLSASVGDRVTITCRASESVDNYGISFMNWFQQKPGKAPKLLIYAASNQGSGVPSRFSGSGSGTDFTLTISSLQPDDFATYYCQQSKEVPWTFGQGTKVEIKRTVAAPSVFIFPPSDEQLKSGTASVVCLLNNFYPREAKVQWKVDNALQSGNSQESVTEQDSKDSTYSLSSTLTLSKADYEKHKVYACEVTHQGLSSPVTKSFNRGECHHHHHH
heavy: B6 heavy
notes: as for B1
B8: CD33 BRIDGE variant B22 (Fab)
light: DFPGHNYTTRNILPGLNITSTFHKTSGSGKEPKSSDKTHTDIQMTQSPSSLSASVGDRVTITCRASESVDNYGISFMNWFQQKPGKAPKLLIYAASNQGSGVPSRFSGSGSGTDFTLTISSLQPDDFATYYCQQSKEVPWTFGQGTKVEIKRTVAAPSVFIFPPSDEQLKSGTASVVCLLNNFYPREAKVQWKVDNALQSGNSQESVTEQDSKDSTYSLSSTLTLSKADYEKHKVYACEVTHQGLSSPVTKSFNRGECHHHHHH
heavy: B6 heavy
notes: as for B1
B9: CD33 BRIDGE variant B21 (Fab)
light: DFPGHNYTTRNILPGLNITSGGGGSEPKSSDKTHTDIQMTQSPSSLSASVGDRVTITCRASESVDNYGISFMNWFQQKPGKAPKLLIYAASNQGSGVPSRFSGSGSGTDFTLTISSLQPDDFATYYCQQSKEVPWTFGQGTKVEIKRTVAAPSVFIFPPSDEQLKSGTASVVCLLNNFYPREAKVQWKVDNALQSGNSQESVTEQDSKDSTYSLSSTLTLSKADYEKHKVYACEVTHQGLSSPVTKSFNRGECHHHHHH
heavy: B6 heavy
notes: as for B1
B10: CD33 BRIDGE variant B18 (Fab)
light: GHNYTTRNILPGLNITSTFHKTSGSGKGGGGSEPKSSDKTHTGGGGSDIQMTQSPSSLSASVGDRVTITCRASESVDNYGISFMNWFQQKPGKAPKLLIYAASNQGSGVPSRFSGSGSGTDFTLTISSLQPDDFATYYCQQSKEVPWTFGQGTKVEIKRTVAAPSVFIFPPSDEQLKSGTASVVCLLNNFYPREAKVQWKVDNALQSGNSQESVTEQDSKDSTYSLSSTLTLSKADYEKHKVYACEVTHQGLSSPVTKSFNRGECHHHHHH
heavy: B6 heavy
notes: as for B1
B11: CD33 BRIDGE variant B15 (Fab)
light: GHNYTTRNILPGLNITSGGGGSEPKSSDKTHTGGGGSDIQMTQSPSSLSASVGDRVTITCRASESVDNYGISFMNWFQQKPGKAPKLLIYAASNQGSGVPSRFSGSGSGTDFTLTISSLQPDDFATYYCQQSKEVPWTFGQGTKVEIKRTVAAPSVFIFPPSDEQLKSGTASVVCLLNNFYPREAKVQWKVDNALQSGNSQESVTEQDSKDSTYSLSSTLTLSKADYEKHKVYACEVTHQGLSSPVTKSFNRGECHHHHHH
heavy: B6 heavy
notes: as for B1
B12: CD33 BRIDGE variant B16 (Fab)
light: GHNYTTRNILPGLNITSTFHKTSGSGKEPKSSDKTHTGGGGSDIQMTQSPSSLSASVGDRVTITCRASESVDNYGISFMNWFQQKPGKAPKLLIYAASNQGSGVPSRFSGSGSGTDFTLTISSLQPDDFATYYCQQSKEVPWTFGQGTKVEIKRTVAAPSVFIFPPSDEQLKSGTASVVCLLNNFYPREAKVQWKVDNALQSGNSQESVTEQDSKDSTYSLSSTLTLSKADYEKHKVYACEVTHQGLSSPVTKSFNRGECHHHHHH
heavy: B6 heavy
notes: as for B1

molecular target: T1, CD33 (UniProt P20138 18-364, limits assumed); assay: flow cytometry, MOLM-13 cells, anti-His-FITC detection
T1 construct: whole, on cells; also called Siglec-3; CD33 on MOLM-13 cells
Experimental: (§1) MOLM-13 cells were incubated with different CD33 BRIDGE variants at saturating concentrations. […] The MFI intensity correlates with the number of secondary antibodies bound to the CD33 BRIDGE variants that are only detected if they are bound to the MOLM-13 cells. MFI: median fluorescence intensity. BLItz: Bio-Layer interferometry (BLI) technology using HIS-tag identification tips. […] The higher the MFIR, the stronger the binding.

T1 sequence (P20138 18-364 limits assumed): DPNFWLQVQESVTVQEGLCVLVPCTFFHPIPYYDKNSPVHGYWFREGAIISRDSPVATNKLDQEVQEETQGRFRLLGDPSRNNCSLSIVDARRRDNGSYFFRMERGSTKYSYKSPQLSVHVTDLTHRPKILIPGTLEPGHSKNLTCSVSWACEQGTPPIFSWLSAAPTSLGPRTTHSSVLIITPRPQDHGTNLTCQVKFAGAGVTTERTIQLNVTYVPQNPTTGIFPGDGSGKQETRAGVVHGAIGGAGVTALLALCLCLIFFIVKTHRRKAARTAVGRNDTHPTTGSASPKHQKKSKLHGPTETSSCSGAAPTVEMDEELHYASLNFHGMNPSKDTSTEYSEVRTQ

Row | MFI HisTag FITC | Binder
1 | 6.78 | B1
2 | 5.35 | B2
3 | 6.68 | B3
4 | 5.67 | B4
5 | 7.29 | B5
6 | 6.08 | B6
7 | 7.36 | B7
8 | 4.61 | B8
9 | 6.04 | B9
10 | 5.79 | B10
11 | 7.64 | B11
12 | 6.27 | B12

molecular target: T2, nfP2X7 CAR 1; assay: flow cytometry, CAR T cells, anti-His-FITC, EGFR+ over EGFR- cells
T2 construct: Expressed on T cells with truncated EGFR as marker gene; also called anti-nfP2X7 receptor CAR 1; nfP2X7 targeted CAR on EGFR+ T cells
Experimental: (§2) nfP2X₇ CAR T cells were incubated with different BRiDGE variants at saturating concentrations. […] The MFI intensity correlates with the number of secondary bound antibodies bound to the BRiDGEs that are only detected if they are bound to the CAR T cells. EGFR was used as a marker gene to detect the CAR expression. Thus, the EGFR+ T cell population was defined as the CAR expressing cells and the EGFR− T cell population was defined as the CAR negative subset. MFI: median fluorescence intensity. EGFR: epidermal growth factor receptor. BLItz: Bio-Layer interferometry (BLI) technology using HIS-tag identification tips. HIS-tag MFI Ratio: relative index that is calculated by the testing condition MFI divided by the control MFI, which corresponds to the MFI measured on EGFR+ T cells (defined as CAR positive cells) divided by the MFI measured on the EGFR− T cells (defined as CAR negative cells). […] The higher the MFIR, the stronger the binding.

Row | HisTag MFI Ratio of EGFR+/EGFR- | Binder
13 | 2.9 | B1
14 | 2.9 | B2
15 | 2.9 | B3
16 | 2.9 | B4
17 | 3.4 | B5
18 | 3.1 | B6
19 | 3.2 | B7
20 | 3.1 | B8
21 | 2.8 | B9
22 | 3.4 | B10
23 | 3.1 | B11
24 | 3.4 | B12

molecular target: T2, nfP2X7 CAR 1; assay: flow cytometry, nfP2X7 CAR T cells (EGFR+), anti-His-FITC detection
Experimental: as §2

Row | MFI HisTag FITC in EGFR+ Population | Binder
25 | 1.35 | B1
26 | 1.29 | B2
27 | 1.44 | B3
28 | 1.29 | B4
29 | 1.82 | B5
30 | 1.55 | B6
31 | 1.58 | B7
32 | 1.44 | B8
33 | 1.14 | B9
34 | 1.79 | B10
35 | 1.5 | B11
36 | 1.83 | B12

molecular target: T2, nfP2X7 CAR 1; assay: flow cytometry, CAR T cells, anti-His-FITC, EGFR+ MFI over background 0.4
Experimental: as §2

Row | HisTag MFI Ratio (background 0.4) | Binder
37 | 3.4 | B1
38 | 3.2 | B2
39 | 3.6 | B3
40 | 3.2 | B4
41 | 4.6 | B5
42 | 3.9 | B6
43 | 4 | B7
44 | 3.6 | B8
45 | 2.9 | B9
46 | 4.5 | B10
47 | 3.8 | B11
48 | 4.6 | B12

molecular target: T1, CD33; assay: flow cytometry, MOLM-13 cells, anti-His-FITC detection, ratio to no bridge
Experimental: as §1

Row | MFIR HisTag FITC | Binder
49 | 10.1 | B1
50 | 7.99 | B2
51 | 9.97 | B3
52 | 8.46 | B4
53 | 10.9 | B5
54 | 9.07 | B6
55 | 11 | B7
56 | 6.88 | B8
57 | 9.01 | B9
58 | 8.64 | B10
59 | 11.4 | B11
60 | 9.36 | B12
